Values of other authors as cited in article PMC5776729.
pKd: −log10 of the molar value.

Key:
[1] = target: laminin 411 (Homo sapiens) (UniProt Q16363)
[2] = target: laminin 511 (Homo sapiens) (UniProt O15230)
[3] = target: laminin 111 (Mus musculus) (UniProt P19137)
[4] = target: laminin 111 (Homo sapiens) (UniProt P25391)

Chain of UniProt Q16363 (Q16363 25-1823, chain 1 of 3): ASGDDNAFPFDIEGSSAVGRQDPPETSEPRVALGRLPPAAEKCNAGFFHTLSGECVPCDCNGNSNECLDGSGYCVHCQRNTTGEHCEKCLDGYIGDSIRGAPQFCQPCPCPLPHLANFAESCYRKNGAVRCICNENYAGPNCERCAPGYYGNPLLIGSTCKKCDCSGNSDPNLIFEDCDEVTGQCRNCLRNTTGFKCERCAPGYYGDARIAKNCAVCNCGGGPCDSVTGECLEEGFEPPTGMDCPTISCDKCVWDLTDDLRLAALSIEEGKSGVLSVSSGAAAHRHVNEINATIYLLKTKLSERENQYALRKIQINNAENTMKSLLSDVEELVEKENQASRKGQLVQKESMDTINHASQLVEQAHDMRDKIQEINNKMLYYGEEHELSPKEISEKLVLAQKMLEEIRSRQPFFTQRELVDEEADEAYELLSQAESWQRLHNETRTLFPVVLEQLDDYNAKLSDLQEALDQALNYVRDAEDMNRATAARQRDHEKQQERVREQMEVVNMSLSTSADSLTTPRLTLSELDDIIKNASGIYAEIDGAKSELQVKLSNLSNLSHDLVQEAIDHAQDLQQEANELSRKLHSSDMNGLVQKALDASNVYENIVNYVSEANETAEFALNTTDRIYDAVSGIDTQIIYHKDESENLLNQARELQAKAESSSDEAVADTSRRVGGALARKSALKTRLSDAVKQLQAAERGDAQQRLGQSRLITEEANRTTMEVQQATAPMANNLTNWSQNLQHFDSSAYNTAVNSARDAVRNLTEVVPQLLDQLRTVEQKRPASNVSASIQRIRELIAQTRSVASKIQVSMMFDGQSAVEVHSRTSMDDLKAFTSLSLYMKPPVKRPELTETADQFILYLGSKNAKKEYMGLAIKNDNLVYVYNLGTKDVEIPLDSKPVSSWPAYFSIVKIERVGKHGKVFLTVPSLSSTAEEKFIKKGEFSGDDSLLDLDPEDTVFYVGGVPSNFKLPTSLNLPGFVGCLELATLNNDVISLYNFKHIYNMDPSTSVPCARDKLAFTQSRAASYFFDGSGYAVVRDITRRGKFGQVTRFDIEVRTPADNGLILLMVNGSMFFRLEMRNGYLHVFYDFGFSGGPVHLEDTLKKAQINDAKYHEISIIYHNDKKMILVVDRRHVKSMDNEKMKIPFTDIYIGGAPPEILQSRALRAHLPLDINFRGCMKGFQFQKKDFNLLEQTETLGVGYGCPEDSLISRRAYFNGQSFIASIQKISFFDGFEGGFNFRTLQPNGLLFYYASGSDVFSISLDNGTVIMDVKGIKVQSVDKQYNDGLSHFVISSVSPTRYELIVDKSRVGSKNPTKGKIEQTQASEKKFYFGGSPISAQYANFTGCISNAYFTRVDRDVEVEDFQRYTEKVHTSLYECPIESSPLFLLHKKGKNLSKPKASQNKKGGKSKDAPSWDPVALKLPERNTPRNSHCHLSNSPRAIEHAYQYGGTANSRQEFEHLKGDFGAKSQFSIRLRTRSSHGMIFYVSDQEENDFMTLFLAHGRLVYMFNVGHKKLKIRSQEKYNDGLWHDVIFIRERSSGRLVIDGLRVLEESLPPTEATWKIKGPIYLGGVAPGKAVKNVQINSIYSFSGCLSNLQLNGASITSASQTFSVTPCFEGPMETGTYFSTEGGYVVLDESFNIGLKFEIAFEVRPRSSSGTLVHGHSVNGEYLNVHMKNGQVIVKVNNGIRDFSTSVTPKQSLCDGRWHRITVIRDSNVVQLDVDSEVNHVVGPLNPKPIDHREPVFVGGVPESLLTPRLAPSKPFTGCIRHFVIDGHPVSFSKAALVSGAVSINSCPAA
Chain of UniProt Q16363 (P07942 22-1786, chain 2 of 3, further chain): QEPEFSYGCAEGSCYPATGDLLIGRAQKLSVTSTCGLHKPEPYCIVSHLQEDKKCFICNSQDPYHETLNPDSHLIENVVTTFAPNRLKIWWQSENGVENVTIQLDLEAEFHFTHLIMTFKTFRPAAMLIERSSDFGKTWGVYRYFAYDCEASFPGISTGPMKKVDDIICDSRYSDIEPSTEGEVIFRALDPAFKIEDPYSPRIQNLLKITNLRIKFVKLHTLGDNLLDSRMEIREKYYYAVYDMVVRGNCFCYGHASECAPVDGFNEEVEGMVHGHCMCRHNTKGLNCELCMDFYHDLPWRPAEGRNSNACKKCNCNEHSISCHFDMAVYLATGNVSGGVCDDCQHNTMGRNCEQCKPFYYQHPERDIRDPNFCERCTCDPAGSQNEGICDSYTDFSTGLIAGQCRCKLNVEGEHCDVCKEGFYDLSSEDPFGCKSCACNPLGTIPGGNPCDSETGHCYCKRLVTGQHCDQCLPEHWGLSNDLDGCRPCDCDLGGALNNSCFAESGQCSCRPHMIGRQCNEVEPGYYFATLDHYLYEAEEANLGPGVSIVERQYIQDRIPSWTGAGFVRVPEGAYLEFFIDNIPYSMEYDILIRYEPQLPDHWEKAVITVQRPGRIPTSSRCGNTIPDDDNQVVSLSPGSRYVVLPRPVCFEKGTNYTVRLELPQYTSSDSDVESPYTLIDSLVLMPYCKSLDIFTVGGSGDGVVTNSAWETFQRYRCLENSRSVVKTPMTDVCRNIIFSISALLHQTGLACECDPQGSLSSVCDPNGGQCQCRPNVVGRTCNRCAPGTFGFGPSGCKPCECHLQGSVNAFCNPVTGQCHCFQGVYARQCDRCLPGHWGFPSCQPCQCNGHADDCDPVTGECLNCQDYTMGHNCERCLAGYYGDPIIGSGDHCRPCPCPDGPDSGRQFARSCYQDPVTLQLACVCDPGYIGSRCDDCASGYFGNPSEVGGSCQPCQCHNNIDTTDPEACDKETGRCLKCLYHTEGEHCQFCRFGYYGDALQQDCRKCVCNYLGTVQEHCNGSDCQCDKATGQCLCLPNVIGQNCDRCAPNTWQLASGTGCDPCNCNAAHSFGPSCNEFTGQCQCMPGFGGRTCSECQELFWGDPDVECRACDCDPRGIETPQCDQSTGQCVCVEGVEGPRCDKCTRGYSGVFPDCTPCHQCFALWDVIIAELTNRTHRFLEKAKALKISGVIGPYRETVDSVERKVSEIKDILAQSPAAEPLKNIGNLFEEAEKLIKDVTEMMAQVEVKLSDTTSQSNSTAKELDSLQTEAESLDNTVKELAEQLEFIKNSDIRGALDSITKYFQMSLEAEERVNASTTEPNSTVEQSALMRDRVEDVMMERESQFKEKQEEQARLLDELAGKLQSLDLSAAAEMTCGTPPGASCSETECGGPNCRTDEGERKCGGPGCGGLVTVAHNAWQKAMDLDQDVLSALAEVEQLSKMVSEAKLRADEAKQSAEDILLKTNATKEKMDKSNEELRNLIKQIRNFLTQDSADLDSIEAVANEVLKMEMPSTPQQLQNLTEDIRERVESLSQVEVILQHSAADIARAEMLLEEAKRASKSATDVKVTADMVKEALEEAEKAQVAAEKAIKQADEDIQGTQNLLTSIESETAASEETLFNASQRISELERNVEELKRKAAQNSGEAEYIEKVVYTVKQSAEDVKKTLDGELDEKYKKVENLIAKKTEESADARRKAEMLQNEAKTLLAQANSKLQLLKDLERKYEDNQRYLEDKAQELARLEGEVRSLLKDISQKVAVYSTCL
Chain of UniProt Q16363 (P11047 34-1609, chain 3 of 3, further chain): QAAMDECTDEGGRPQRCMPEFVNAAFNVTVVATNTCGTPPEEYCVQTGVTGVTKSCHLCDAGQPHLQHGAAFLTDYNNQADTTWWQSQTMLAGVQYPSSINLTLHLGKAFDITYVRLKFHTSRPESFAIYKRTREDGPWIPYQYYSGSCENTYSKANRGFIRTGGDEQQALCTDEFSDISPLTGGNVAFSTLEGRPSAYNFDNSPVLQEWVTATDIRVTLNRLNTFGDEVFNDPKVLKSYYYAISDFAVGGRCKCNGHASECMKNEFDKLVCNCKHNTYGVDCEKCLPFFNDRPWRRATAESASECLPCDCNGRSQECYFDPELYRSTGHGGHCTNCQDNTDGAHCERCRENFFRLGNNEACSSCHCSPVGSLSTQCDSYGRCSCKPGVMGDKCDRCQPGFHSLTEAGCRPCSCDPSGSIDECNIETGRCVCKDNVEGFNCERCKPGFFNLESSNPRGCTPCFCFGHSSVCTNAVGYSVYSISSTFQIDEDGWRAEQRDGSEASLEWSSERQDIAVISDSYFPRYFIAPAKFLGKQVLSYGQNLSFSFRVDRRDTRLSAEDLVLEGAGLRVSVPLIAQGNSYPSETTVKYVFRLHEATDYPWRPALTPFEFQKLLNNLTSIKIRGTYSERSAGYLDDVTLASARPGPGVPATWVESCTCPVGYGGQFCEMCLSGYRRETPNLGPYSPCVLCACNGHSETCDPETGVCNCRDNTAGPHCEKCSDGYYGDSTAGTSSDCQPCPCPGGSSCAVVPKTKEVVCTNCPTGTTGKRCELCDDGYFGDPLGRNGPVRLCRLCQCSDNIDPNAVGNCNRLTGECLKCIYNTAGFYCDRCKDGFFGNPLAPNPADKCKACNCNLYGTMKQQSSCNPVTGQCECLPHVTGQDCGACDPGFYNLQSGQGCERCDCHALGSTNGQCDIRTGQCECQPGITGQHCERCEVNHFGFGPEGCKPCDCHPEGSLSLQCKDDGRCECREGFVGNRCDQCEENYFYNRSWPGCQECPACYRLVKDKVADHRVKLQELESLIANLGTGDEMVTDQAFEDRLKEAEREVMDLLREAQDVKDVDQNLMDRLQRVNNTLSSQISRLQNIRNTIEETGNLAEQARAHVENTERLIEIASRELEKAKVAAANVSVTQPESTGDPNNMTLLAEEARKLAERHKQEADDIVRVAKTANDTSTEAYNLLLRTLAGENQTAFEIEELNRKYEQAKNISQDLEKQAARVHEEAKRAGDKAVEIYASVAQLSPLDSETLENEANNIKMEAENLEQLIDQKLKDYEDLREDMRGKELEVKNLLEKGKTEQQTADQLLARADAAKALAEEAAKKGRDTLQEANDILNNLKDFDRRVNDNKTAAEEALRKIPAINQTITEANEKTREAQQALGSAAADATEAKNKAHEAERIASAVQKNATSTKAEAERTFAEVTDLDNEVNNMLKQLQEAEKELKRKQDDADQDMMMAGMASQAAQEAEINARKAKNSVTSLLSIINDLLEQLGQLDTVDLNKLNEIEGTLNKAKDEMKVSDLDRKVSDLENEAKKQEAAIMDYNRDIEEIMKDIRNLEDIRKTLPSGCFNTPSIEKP

Factor XI (from UniProt P03951)
pKd [1]: 8.04
pKd [2]: 8.08
pKd [3]: 7.73
pKd [4]: 7.95
